# Measured values from patent US20160331821A1 (AGENUS, published 2016).
# Square brackets hold non-standard residues; d marks the D form. Ends that are not written are not given here. pS = N[C@@H](COP(=O)(O)O)C(=O)O
# B1: NLLRLTGFFRKGLLG{pSer}PVRA (CDC25 antigen phosphopeptide epitope with N-terminal high affinity HSP binding sequence and FFRK linker) (peptide)
# peptide: NLLRLTGFFRKGLLG[pS]PVRA
# B2: GLLG{pSer}PVRAFFRKNLLRLTG (CDC25 antigen phosphopeptide epitope with C-terminal FFRK linker and high affinity HSP binding sequence) (peptide)
# peptide: GLLG[pS]PVRAFFRKNLLRLTG
# B3: NLLRLTGFFRKRVA{pSer}PTSGV (IRS-2 antigen phosphopeptide epitope with N-terminal high affinity HSP binding sequence and FFRK linker) (peptide)
# peptide: NLLRLTGFFRKRVA[pS]PTSGV
# B4: RVA{pSer}PTSGVFFRKNLLRLTG (IRS-2 antigen phosphopeptide epitope with C-terminal FFRK linker and high affinity HSP binding sequence) (peptide)
# peptide: RVA[pS]PTSGVFFRKNLLRLTG
# B5: chicken ovalbumin peptide SIINFEKL fused at its N-terminus via the linker FFRK to the high affinity Hsc70 binding sequence NLLRLTG (NLLRLTGFFRKSIINFEKL) (peptide)
# peptide: NLLRLTGFFRKSIINFEKL
# Key:
# [1] = biological target: T1, recombinant human Hsc70 (Genbank Accession No. P11142.1) (human, UniProt P11142 1-646, limits assumed); test: size exclusion chromatography after incubating peptide with Hsc70 in PBS, 37 C, 1 h, 4:1 molar excess peptide:Hsc70
# T1 construct: also called rhHsc70; rh-Hsc70
# Procedure: Four peptides (Table 9) containing a phosphorylated serine residue were synthesized to 95% purity (GenScript, Cambridge, Mass.). […] These peptides were individually incubated with Hsc70 in PBS at 37° C. for 1 hour at a 4:1 molar excess (peptide:Hsc70) to form non-covalent Hsc70-peptide complexes. After incubation, the complexes were analyzed by SEC to quantify the proportion of Hsc70 molecules loaded with peptide.
# [2] = biological target: T2, recombinant human Hsc70 (Genbank Accession No. P11142.1) (Biomay AG) (human, UniProt P11142 1-646, limits assumed); test: size exclusion chromatography; Hsc70:peptide molar ratio 1:2, same result at 1:5
# T2 construct: Resolves on SEC as a monomeric and an oligomeric form; also called rhHsc70; rh-Hsc70
# Procedure: Standard size exclusion chromatography was carried out using 7 μM of recombinant human Hsc70 (Genbank Accession No. P11142.1) (Biomay AG) in a reaction buffer containing 20 mM HEPES and 200 mM KCL in a final volume of 50 μl. Reactions were incubated at 37° C. for 1 or 2 hours and centrifuged 2 min at 13000 RPM. Reaction products (10 μg) were resolved on a TSKgel SuperSW3000, 4 μm particle size, 25 nm pore size gel filtration chromatography column (Tosoh Bioscience). […] The percentage of Hsc70 complexed with peptide in each reaction mixture was calculated by measuring the surface area of the appropriate peak.
# The comparative effect of placing the high affinity Hsc70 binding sequence at the N- and C-terminus of the ovalbumin peptide, linked via the FFRK (SEQ ID NO:447) linker in both cases, was also tested. […] The sequence of the test peptide with the C-terminal high affinity Hsc70 binding sequence was […] (SEQ ID NO:449), and the sequence of the test peptide with N-terminal high affinity Hsc70 binding sequence was […] (SEQ ID NO:450).
# T1 sequence (P11142 whole entry, one chain of several): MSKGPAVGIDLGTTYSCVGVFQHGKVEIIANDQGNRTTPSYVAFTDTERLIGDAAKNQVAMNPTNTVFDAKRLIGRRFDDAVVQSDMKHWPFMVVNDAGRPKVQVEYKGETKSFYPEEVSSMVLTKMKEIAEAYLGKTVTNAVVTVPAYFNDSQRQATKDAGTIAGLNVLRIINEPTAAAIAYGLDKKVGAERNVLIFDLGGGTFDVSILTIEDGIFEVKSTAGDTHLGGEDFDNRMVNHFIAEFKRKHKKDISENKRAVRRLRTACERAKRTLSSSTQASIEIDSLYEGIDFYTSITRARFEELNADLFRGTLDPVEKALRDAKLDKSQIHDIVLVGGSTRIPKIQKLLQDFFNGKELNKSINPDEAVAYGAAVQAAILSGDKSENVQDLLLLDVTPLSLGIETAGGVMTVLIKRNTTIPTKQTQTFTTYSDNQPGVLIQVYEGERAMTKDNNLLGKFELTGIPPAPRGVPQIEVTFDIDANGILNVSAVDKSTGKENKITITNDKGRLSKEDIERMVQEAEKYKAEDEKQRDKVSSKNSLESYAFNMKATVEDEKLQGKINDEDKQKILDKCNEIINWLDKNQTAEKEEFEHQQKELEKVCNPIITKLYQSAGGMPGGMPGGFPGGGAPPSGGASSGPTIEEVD
# T2 sequence (P11142 whole entry, one chain of several): as above
binder,measurement,setting,value
B1,Percentage of Hsc70 loaded with peptide,[1],41%
B2,Percentage of Hsc70 loaded with peptide,[1],74%
B3,Percentage of Hsc70 loaded with peptide,[1],34%
B4,Percentage of Hsc70 loaded with peptide,[1],75%
B5,binding result,[2],binds
